In the supplement of paper PMC10724198:
± gives the standard deviation of the averaged measurements.

system: Saccharomyces cerevisiae; assay: protein stability index of tFT-peptide fusion (C-terminal peptide) (PSI (0-1 scale)); higher = more stable (slower turnover); conditions: genetic background: wild type; temperature: 30 C
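Further: PSI is a weighted mean of sequencing reads over stability bins, variants kept only with over 10 reads, mCherry proximal and sfGFP distal, peptide attached via GGGS linker.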

| Sequence | protein stability index |
| --- | --- |
| ELHPPIPYPSRP | 0.6773 ± 0.0047 |
| RGPGAWFVSWWA | 0.7886 ± 0.0029 |
| RFRVKSYLYFCP | 0.614 ± 0.03 |
| LVGGGDRPGLGR | 0.66 ± 0.0079 |
| SSPVDPLRPPAP | 0.704 ± 0.013 |
| FESRDMVGWFGG | 0.674 ± 0.019 |
| SSFLFVPHHYPS | 0.706 ± 0.044 |
| AAPEGLRRDRGA | 0.571 |
| RGLYQCFLLDIV | 0.472 ± 0.047 |
| VVSDGRSYGLLK | 0.73703 ± 0.00014 |
| HYWTTENDWPHG | 0.705 ± 0.025 |
| RRFLRRISAFAS | 0.558 ± 0.06 |
| KKKKYKKKRKIK | 0.74 ± 0.015 |
| SGGRTSRREGGR | 0.643 ± 0.075 |
| DVNSNYNVGEQR | 0.64 ± 0.012 |
| GVRKGEESGVGW | 0.717 ± 0.0085 |
| WRPLIPPSLPPL | 0.6977 ± 0.0069 |
| ASVLSTQDPGEY | 0.676 ± 0.055 |
| PQTYHRPPPPLH | 0.702 ± 0.028 |
| AHRSIFSASSLL | 0.668 ± 0.084 |
| DFYSLAWHFWFL | 0.69 ± 0.073 |
| KLDDEVLFKRNI | 0.692 ± 0.057 |
| LPRPPPPPPPSP | 0.827 ± 0.098 |
| LCMGVRGRVGVF | 0.682 ± 0.088 |
| SIHITGTLSRTA | 0.751 ± 0.065 |
| IKFMTTGVRTMG | 0.662 ± 0.03 |

| Sequence | protein stability index |
| --- | --- |
| MERAGTAEGGGA | 0.655 ± 0.008 |
| GPGPRAASADCP | 0.728 ± 0.08 |
| SLRFLFPSSRFF | 0.664 ± 0.015 |
| PRCSVYPITGPY | 0.682 ± 0.046 |
| SNKGIKNIKKKT | 0.728 ± 0.0084 |
| KILAVKIRRLYL | 0.532 ± 0.018 |
| WFGPPAPRKVSP | 0.852 ± 0.042 |
| FLRVVGFVCRWG | 0.679 ± 0.025 |
| AVGWGGLKGRVG | 0.7 ± 0.037 |
| SNQHKKKNQLRE | 0.693 ± 0.086 |
| GRKKRGRKGEEK | 0.631 ± 0.035 |
| GGWFLLTRLGNW | 0.684 ± 0.035 |
| CGEGVCVTGWSR | 0.68 ± 0.028 |
| GILPDSCRSNTG | 0.623 ± 0.081 |
| PPRPPPSPPLPP | 0.696 ± 0.062 |
| LFYRTLPLPWPA | 0.742 ± 0.02 |
| GFIDGSTVRTCL | 0.64 ± 0.054 |
| FGGMSGVLFRMV | 0.663 ± 0.054 |
| WLGTIVCGRGWW | 0.7003 ± 0.006 |
| GDRNNLRCWNAS | 0.712 ± 0.11 |
| LPGGECSLKGQQ | 0.701 ± 0.079 |
| EEEQGPSENEKT | 0.9714 ± 0.0082 |
| GWQLWGFCLSGP | 0.637 ± 0.032 |
| SSDNKGLFDTRI | 0.728 ± 0.024 |
| IGSEKGKIGVGC | 0.677 ± 0.067 |
| IPQIVRKLVPLT | 0.575 ± 0.007 |

| Sequence | protein stability index |
| --- | --- |
| PRALCPPPSPST | 0.697 ± 0.043 |
| GVSWVGGRVFGG | 0.6964 ± 0.0051 |
| CCVVFMGLGGGR | 0.673 ± 0.0085 |
| KMIDNKQKSVAV | 0.675 ± 0.012 |
| GCPRGGVGSRGV | 0.659 ± 0.098 |
| ARSRLAPLSVLA | 0.548 ± 0.029 |
| GRPGISESGIIG | 0.7103 ± 0.0071 |
| SPPPFLLPRLFS | 0.639 ± 0.096 |
| GRGVGCVRRVGG | 0.676 ± 0.059 |
| DPRVLPPPPRLP | 0.637 ± 0.02 |
| PPPHPPPLAIPP | 0.767 ± 0.075 |
| FPYPFSSSCFSS | 0.651 ± 0.062 |
| HTAITSGYSRGL | 0.633 ± 0.049 |
| VVISRTPAALES | 0.697 ± 0.013 |
| DKRRSMSGGNMD | 0.68 ± 0.024 |
| FNINRCLEGAHK | 0.717 ± 0.035 |
| RNRDKKGDMILK | 0.691 ± 0.0086 |
| RLIEDREWLGSR | 0.721 ± 0.014 |
| PPAPPTSLPSPL | 0.726 ± 0.019 |
| LSVPWSTRPFSV | 0.703 ± 0.019 |
| CPTVLWPRSPRN | 0.688 ± 0.027 |
| LPPPRPLPRPCP | 0.748 ± 0.096 |
| YSLQLSTVCCRL | 0.614 ± 0.019 |
| CIRSRHRRQSKG | 0.67 ± 0.088 |
| VVPYRCQRLGDG | 0.686 ± 0.061 |
| EYVKFGMEHILE | 0.675 ± 0.024 |

| Sequence | protein stability index |
| --- | --- |
| PPLPYPCPPVFV | 0.581 ± 0.012 |
| GGGGGGGVAGGV | 0.715 ± 0.041 |
| GRSDAPVPFDPP | 0.561 ± 0.0098 |
| LTYLLFPSSLQA | 0.677 ± 0.04 |
| SPSLLLSFLSFF | 0.665 ± 0.071 |
| AWGLDGCQLCFS | 0.751 ± 0.11 |
| GGYDFRCPCCGV | 0.723 ± 0.025 |
| THMSPLPTSERW | 0.678 ± 0.085 |
| CYKKRKKTNNYE | 0.653 ± 0.02 |
| MGAGGGLCGMWA | 0.705 ± 0.054 |
| DLSRSPAPPAPL | 0.6706 ± 0.0014 |
| PGPPADLAPPPP | 0.753 ± 0.018 |
| VPAGDPPGAWKA | 0.746 ± 0.025 |
| YFNNVFQVAGGF | 0.639 ± 0.025 |
| GPRVILALLSRR | 0.6842 ± 0.0067 |
| PPSRPLPSPLPP | 0.631 ± 0.03 |
| VGGGGVGAGVWG | 0.653 ± 0.086 |
| QGSWLRSVNLEY | 0.617 ± 0.092 |
| LSPGPVHDRSRP | 0.675 ± 0.03 |
| RNFAPPFLPSPH | 0.711 ± 0.066 |
| PSALPLFWSELF | 0.661 ± 0.022 |
| KSKTENKEKATK | 0.716 ± 0.1 |
| PPAPSPPQPSPL | 0.686 ± 0.0088 |
| TWRRAVSERPYP | 0.725 ± 0.1 |
| GGNKETKITRIE | 0.698 ± 0.011 |
| CSHPHPSSNLPS | 0.683 ± 0.045 |

| Sequence | protein stability index |
| --- | --- |
| PHLPPLLTTTPS | 0.61 ± 0.023 |
| PAPLSIPSTLTT | 0.609 ± 0.053 |
| GPSVGWFPSGWS | 0.74212 ± 0.00021 |
| SGGGGGGQVAVG | 0.739 ± 0.1 |
| GMRGGKGKPAET | 0.728 ± 0.0096 |
| PPPHPPLPTFDP | 0.707 ± 0.05 |
| EATIVGLSYRTL | 0.617 ± 0.032 |
| ALRRKPRPRYPP | 0.621 ± 0.051 |
| SRALSPRAPFGN | 0.76 ± 0.15 |
| KKKNQGKKKIKK | 0.699 ± 0.085 |
| SVNRRTVYRKNK | 0.764 ± 0.17 |
| LSPFPSCLPPSV | 0.702 ± 0.045 |
| VGPFRISRSFTG | 0.7174 ± 0.004 |
| KKNEKGSKGAEY | 0.66 ± 0.03 |
| PPSLAPPPTSRP | 0.679 ± 0.054 |
| LTPRPLPRLSPP | 0.705 ± 0.028 |
| PPGSFWLQARVR | 0.705 ± 0.071 |
| RYRGPIPHEHTC | 0.652 ± 0.085 |
| SVLSPTLESLIF | 0.681 ± 0.032 |
| LTDKHNETNINQ | 0.6501 ± 0.0042 |
| MKLWSDALNVVR | 0.607 ± 0.12 |
| GGGDRRRTARLS | 0.578 ± 0.027 |
| FVASRFLRCLVL | 0.495 ± 0.017 |
| CSAVVPASARTP | 0.606 ± 0.019 |
| HSINNVITNNTE | 0.678 ± 0.017 |
| SAPRPPPLPPSP | 0.68 ± 0.068 |

| Sequence | protein stability index |
| --- | --- |
| SPFSPLPSPRPR | 0.723 ± 0.018 |
| PLPPTPPPALSQ | 0.7 ± 0.018 |
| FSMAHLDGGHRR | 0.676 ± 0.013 |
| QHIKNARKKKGE | 0.657 ± 0.0073 |
| TVKAGESILEQR | 0.716 ± 0.013 |
| AGGGAAGPAGWV | 0.6728 ± 0.0036 |
| GDYITIGGGLIW | 0.759 ± 0.017 |
| PPPPPTPPPARP | 0.695 ± 0.054 |
| RDNKIKEGKKKK | 0.682 ± 0.1 |
| FCHLGSPATDFR | 0.646 ± 0.013 |
| TRPKINKGKGTG | 0.6677 ± 0.0014 |
| EVLFWRGVSRME | 0.725 ± 0.16 |
| TEVSDVSWSEVW | 0.696 ± 0.025 |
| PMFESFHLPAPI | 0.715 ± 0.018 |
| IPSVRATDGKIM | 0.649 ± 0.024 |
| VFLRSGCSGWGE | 0.827 ± 0.094 |
| GGGDFDTLWDSR | 0.789 ± 0.03 |
| LFSLFLRSPLTS | 0.664 ± 0.035 |
| CLPLFISPFLLG | 0.677 ± 0.0068 |
| PPPPLPPPPVLT | 0.7 ± 0.051 |
| PPVLSLGPPFTS | 0.73 ± 0.11 |
| GSSSSLDVFVVF | 0.699 ± 0.085 |
| CLGPTVYGRSTF | 0.728 ± 0.025 |
| RGVPWVVFSVGA | 0.542 ± 0.015 |
| GLATISARYFCL | 0.647 ± 0.064 |
| VSSPRLSPRLLY | 0.775 ± 0.084 |

| Sequence | protein stability index |
| --- | --- |
| LRSLVRSRPAPP | 0.6744 ± 0.0042 |
| CRSRRIVGPDSR | 0.669 ± 0.015 |
| GERHTGTLRRPD | 0.701 ± 0.065 |
| DSWMKRPNKGQE | 0.698 ± 0.058 |
| PPLLLLRRRSPS | 0.699 ± 0.062 |
| GGCRRGVQLFWD | 0.7236 ± 0.0023 |
| FCLGWWVAVCGL | 0.487 ± 0.04 |
| KIKNNIKKKKNR | 0.697 ± 0.024 |
| LLWNFNLCHCEE | 0.701 ± 0.011 |
| EGWRWEGGVWEG | 0.676 ± 0.022 |
| GGGGCDVGGCVG | 0.675 ± 0.039 |
| GWPVSICGSTQN | 0.754 ± 0.058 |
| PALPPPPLLSSS | 0.705 ± 0.012 |
| NTTFISRRLPPR | 0.687 ± 0.0089 |
| SISGTSKDSASC | 0.6677 ± 0.0028 |
| TVMRPSVGHVDG | 0.68 ± 0.038 |
| SPPPPPLTHSPS | 0.627 ± 0.15 |
| ACSPPPPPTLLF | 0.686 ± 0.012 |
| VVSEQLDRGMRF | 0.694 ± 0.039 |
| SSCFVIRSLSNP | 0.72 ± 0.14 |
| PPPAPTQTALPP | 0.7028 ± 0.0057 |
| AERKDKNRKKKR | 0.705 ± 0.023 |
| KKVRTNTSKEIK | 0.692 ± 0.15 |
| VMVYLRSPLLDR | 0.748 ± 0.059 |
| SPYLGTYAPVIK | 0.6804 ± 0.0032 |
| GPPRTRRRSARG | 0.668 ± 0.0068 |

| Sequence | protein stability index |
| --- | --- |
| RAKCELVHGLRT | 0.65 ± 0.026 |
| VAACVSLFCGAL | 0.719 ± 0.074 |
| VAGGGGGCLVDC | 0.646 ± 0.022 |
| VTPVQFMFRLHF | 0.646 ± 0.054 |
| FVFQYVVGNFAI | 0.617 ± 0.051 |
| CGRPPPLFAFIP | 0.701 ± 0.037 |
| GVVGGGVQGGMG | 0.624 ± 0.0046 |
| DSHEEGVSVAPA | 0.749 ± 0.034 |
| CCPLRLPRSRGY | 0.705 ± 0.055 |
| SPPPPSPTCPHL | 0.652 ± 0.035 |
| RLRSWLGIALFL | 0.642 ± 0.0067 |
| VRFLWWGLFWGW | 0.499 ± 0.016 |
| DLARSLVQSLSG | 0.675 ± 0.017 |
| DPTVIKNQTWFG | 0.722 ± 0.05 |
| LPRAGLVLSPLH | 0.661 ± 0.051 |
| LLSNDNRIKTIR | 0.725 ± 0.047 |
| HPPSPPSRVSPS | 0.594 ± 0.032 |
| TSTHSFLDFGTG | 0.6272 ± 0.0011 |
| LRFSFFSSLFVL | 0.516 ± 0.019 |
| PLTGSLIPLFPL | 0.732 ± 0.029 |
